US20210071139A1

Key:
TOX [1] = molecular target: TOX (UniProt Q66JW3); assay: anti-TOX IP from EL4 nuclear extract, LC-MS/MS, MiST vs IgG control
TOX [2] = molecular target: TOX (UniProt Q66JW3); assay: TOX co-IP from EL4 nuclear extract, LC-MS/MS, MiST

Sequence of TOX (Q66JW3 whole entry): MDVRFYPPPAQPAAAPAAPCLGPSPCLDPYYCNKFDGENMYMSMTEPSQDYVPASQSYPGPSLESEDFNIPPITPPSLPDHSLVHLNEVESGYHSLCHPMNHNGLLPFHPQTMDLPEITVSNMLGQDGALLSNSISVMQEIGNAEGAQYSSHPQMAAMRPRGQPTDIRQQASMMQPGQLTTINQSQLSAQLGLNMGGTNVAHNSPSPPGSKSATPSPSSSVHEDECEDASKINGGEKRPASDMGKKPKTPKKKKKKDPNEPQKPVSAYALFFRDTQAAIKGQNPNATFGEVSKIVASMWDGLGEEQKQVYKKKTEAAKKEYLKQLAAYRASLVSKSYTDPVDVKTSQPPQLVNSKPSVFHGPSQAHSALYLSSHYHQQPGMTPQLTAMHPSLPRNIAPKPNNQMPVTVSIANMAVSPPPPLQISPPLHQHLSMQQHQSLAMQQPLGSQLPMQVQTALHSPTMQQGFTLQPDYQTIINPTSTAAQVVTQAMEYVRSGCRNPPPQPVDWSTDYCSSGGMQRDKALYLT

| Binder | Abundance (TOX [1]) | MiST Score (TOX [1]) | Reproducibility (TOX [1]) | Specificity (TOX [1]) | Abundance (TOX [2]) | MiST Score (TOX [2]) | Reproducibility (TOX [2]) | Specificity (TOX [2]) |
| --- | --- | --- | --- | --- | --- | --- | --- | --- |
| Cwc27 (protein, UniProt Q3TKY6 2-469, looked up) Spliceosome-associated protein CWC27 homolog: SNIYIQEPPTNGKVLLKTTAGDIDIELWSKEAPKACRNFIQLCLEAYYDNTIFHRVVPGFIVQGGDPTGTGTGGESIYGAPFKDEFHSRLRFNRRGLVAMANAGPHDNGSQFFFTLGRADELNNKHTIFGKVTGDTVYNMLRLTEVDIDDEERPRNPHRIKSCEVLFNPFDDITPREIKKPKNEKPEEEVKKLKPKGTKNFSLLSFGEEAEEEEEEVNRVSQSMKGRSKSSHDLLKDDPHLSSVPAVESEKDDATGDLEDDGEDDSAERDEYMEDDEKNLMRERIAKRLKKDASASVKSAGDGEKKPASRSEELRKEARQLKRELLAAKQKKETAIKVEEGREEEEAAPDGAVAEYRREKQKYEALRKQQPKKGTSREDQTLALLSQFKSKLTQAITETPENSVPEAEVEDDEGWMSHVLQFEDKTRKVKDASMQDSDTFEIYDPRNPVNKRRREESKKLLREKKERR | 1.14e-05 | 0.758 | 0.435 | 0.91 | – | – | – | – |
| Spty2d1 (protein, UniProt Q68FG3 1-682, looked up) Protein SPT2 homolog: MDFREILLIASKGQGVNHVPKRYSLAVGPPKKDPKVKGVQSAAVQAFLRRKEEELRQKALEEKKRKEELVKKRIELKHDKKARAMAKRTKDNFHGYDGIPVEEKTKKKQLVESHLNQGTDQEYDVEEEDFIDYNQAELDQDYEEEQEPPKAESKPKAPLKSAPSPMNFTDLLRLAEKKQFEPVEIKVVKKAEDRPLTAEELREREFLERKHRKKKPEPDAKLPPPVLKKAPSHKDIMGTKPSRGAGDRQLASKGLPFPQAEKKFRPSTASEKQAALSSPKSLPGERTKVGSGSSTQPSLREGHNRPVFNGAGKPRPSTCSPSVPKTPASGTQKSASEHKAKKPLPSHPSHSKPGPTVLSHNKSKSPGVRQPGSNSGSAPGQPNPGTARPTLSSGPVPRRQNGSSSSGPEQSAGGIRKLASNSHLSGRTLNGTNGPGRPASSSSGPGRPISGSAGSGRPVGSSGGPGQPVNNPHDLRRPMNSLSSPGRAVSGPGRSISGSIPAGRTVNSGPGRPVSSLGPGRAVSNPGLPTKPRCTVVSETISSKNIISRSSNGQINGMKPLLSGYRSAQGPQRLPFPTGYKRPREYEEDDDDEYDSEMDDFIEDEGEPQEEISKHIREIFGYDRKKYKDESDYALRYMESSWKEQQKEEAKSLRLGMQEDLEEMRREEEELKRRKAKKLKRH | – | – | – | – | 1.04e-05 | 0.846 | 0.848 | 0.852 |
